Experimental data from article PMC8298264, “Function of cofactor Akirin2 in the regulation of gene expression in model human neutrophil-like HL60 cells” (Bioscience Reports, 2021).

B1: Heat shock protein 105 kDa (protein, UniProt Q92598 2-858, looked up)
Heat shock protein 105 kDa: SVVGLDVGSQSCYIAVARAGGIETIANEFSDRCTPSVISFGSKNRTIGVAAKNQQITHANNTVSNFKRFHGRAFNDPFIQKEKENLSYDLVPLKNGGVGIKVMYMGEEHLFSVEQITAMLLTKLKETAENSLKKPVTDCVISVPSFFTDAERRSVLDAAQIVGLNCLRLMNDMTAVALNYGIYKQDLPSLDEKPRIVVFVDMGHSAFQVSACAFNKGKLKVLGTAFDPFLGGKNFDEKLVEHFCAEFKTKYKLDAKSKIRALLRLYQECEKLKKLMSSNSTDLPLNIECFMNDKDVSGKMNRSQFEELCAELLQKIEVPLYSLLEQTHLKVEDVSAVEIVGGATRIPAVKERIAKFFGKDISTTLNADEAVARGCALQCAILSPAFKVREFSVTDAVPFPISLIWNHDSEDTEGVHEVFSRNHAAPFSKVLTFLRRGPFELEAFYSDPQGVPYPEAKIGRFVVQNVSAQKDGEKSRVKVKVRVNTHGIFTISTASMVEKVPTEENEMSSEADMECLNQRPPENPDTDKNVQQDNSEAGTQPQVQTDAQQTSQSPPSPELTSEENKIPDADKANEKKVDQPPEAKKPKIKVVNVELPIEANLVWQLGKDLLNMYIETEGKMIMQDKLEKERNDAKNAVEEYVYEFRDKLCGPYEKFICEQDHQNFLRLLTETEDWLYEEGEDQAKQAYVDKLEELMKIGTPVKVRFQEAEERPKMFEELGQRLQHYAKIAADFRNKDEKYNHIDESEMKKVEKSVNEVMEWMNNVMNAQAKKSLDQDPVVRAQEIKTKIKELNNTCEPVVTQPKPKIESPKLERTPNGPNIDKKEEDLEDKNNFGAEPPHQNGECYPNEKNSVNMDLD
B2: Bone marrow proteoglycan (protein, UniProt P13727 17-222, looked up)
Bone marrow proteoglycan: LHLRSETSTFETPLGAKTLPEDEETPEQEMEETPCRELEEEEEWGSGSEDASKKDGAVESISVPDMVDKNLTCPEEEDTVKVVGIPGCQTCRYLLVRSLQTFSQAWFTCRRCYRGNLVSIHNFNINYRIQCSVSALNQGQVWIGGRITGSGRCRRFQWVDGSRWNFAYWAAHQPWSRGGHCVALCTRGGHWRRAHCLRRLPFICSY
B3: Resistin (protein, UniProt Q9HD89 19-108, looked up)
Resistin: KTLCSMEEAINERIQEVAGSLIFRAISSIGLECQSVTSRGDLATCPRGFAVTGCTCGSACGSWDVRAETTCHCQCAGMDWTGARCCRVQP
B4: Intraflagellar transport protein 25 homolog (protein, UniProt Q9Y547 1-144, looked up)
Intraflagellar transport …: MRKIDLCLSSEGSEVILATSSDEKHPPENIIDGNPETFWTTTGMFPQEFIICFHKHVRIERLVIQSYFVQTLKIEKSTSKEPVDFEQWIEKDLVHTEGQLQNEEIVAHDGSATYLRFIIVSAFDHFASVHSVSAEGTVVSNLSS
B5: UDP-N-acetylglucosamine--peptide N-acetylglucosaminyltransferase 110 kDa subunit (protein, UniProt O15294 2-1046, looked up)
UDP-N-acetylglucosamine--pepti …: ASSVGNVADSTEPTKRMLSFQGLAELAHREYQAGDFEAAERHCMQLWRQEPDNTGVLLLLSSIHFQCRRLDRSAHFSTLAIKQNPLLAEAYSNLGNVYKERGQLQEAIEHYRHALRLKPDFIDGYINLAAALVAAGDMEGAVQAYVSALQYNPDLYCVRSDLGNLLKALGRLEEAKACYLKAIETQPNFAVAWSNLGCVFNAQGEIWLAIHHFEKAVTLDPNFLDAYINLGNVLKEARIFDRAVAAYLRALSLSPNHAVVHGNLACVYYEQGLIDLAIDTYRRAIELQPHFPDAYCNLANALKEKGSVAEAEDCYNTALRLCPTHADSLNNLANIKREQGNIEEAVRLYRKALEVFPEFAAAHSNLASVLQQQGKLQEALMHYKEAIRISPTFADAYSNMGNTLKEMQDVQGALQCYTRAIQINPAFADAHSNLASIHKDSGNIPEAIASYRTALKLKPDFPDAYCNLAHCLQIVCDWTDYDERMKKLVSIVADQLEKNRLPSVHPHHSMLYPLSHGFRKAIAERHGNLCLDKINVLHKPPYEHPKDLKLSDGRLRVGYVSSDFGNHPTSHLMQSIPGMHNPDKFEVFCYALSPDDGTNFRVKVMAEANHFIDLSQIPCNGKAADRIHQDGIHILVNMNGYTKGARNELFALRPAPIQAMWLGYPGTSGALFMDYIITDQETSPAEVAEQYSEKLAYMPHTFFIGDHANMFPHLKKKAVIDFKSNGHIYDNRIVLNGIDLKAFLDSLPDVKIVKMKCPDGGDNADSSNTALNMPVIPMNTIAEAVIEMINRGQIQITINGFSISNGLATTQINNKAATGEEVPRTIIVTTRSQYGLPEDAIVYCNFNQLYKIDPSTLQMWANILKRVPNSVLWLLRFPAVGEPNIQQYAQNMGLPQNRIIFSPVAPKEEHVRRGQLADVCLDTPLCNGHTTGMDVLWAGTPMVTMPGETLASRVAASQLTCLGCLELIAKNRQEYEDIAVKLGTDLEYLKKVRGKVWKQRISSPLFNTKQYTMELERLYLQMWEHYAAGNKPDHMIKPVEVTESA
B6: Perilipin-3 (protein, UniProt O60664 2-434, looked up)
Perilipin-3: SADGAEADGSTQVTVEEPVQQPSVVDRVASMPLISSTCDMVSAAYASTKESYPHIKTVCDAAEKGVRTLTAAAVSGAQPILSKLEPQIASASEYAHRGLDKLEENLPILQQPTEKVLADTKELVSSKVSGAQEMVSSAKDTVATQLSEAVDATRGAVQSGVDKTKSVVTGGVQSVMGSRLGQMVLSGVDTVLGKSEEWADNHLPLTDAELARIATSLDGFDVASVQQQRQEQSYFVRLGSLSERLRQHAYEHSLGKLRATKQRAQEALLQLSQVLSLMETVKQGVDQKLVEGQEKLHQMWLSWNQKQLQGPEKEPPKPEQVESRALTMFRDIAQQLQATCTSLGSSIQGLPTNVKDQVQQARRQVEDLQATFSSIHSFQDLSSSILAQSRERVASAREALDHMVEYVAQNTPVTWLVGPFAPGITEKAPEEKK
B7: OCIA domain-containing protein 1 (protein, UniProt Q9NX40 1-245, looked up)
OCIA domain-containing …: MNGRADFREPNAEVPRPIPHIGPDYIPTEEERRVFAECNDESFWFRSVPLAATSMLITQGLISKGILSSHPKYGSIPKLILACIMGYFAGKLSYVKTCQEKFKKLENSPLGEALRSGQARRSSPPGHYYQKSKYDSSVSGQSSFVTSPAADNIEMLPHYEPIPFSSSMNESAPTGITDHIVQGPDPNLEESPKRKNITYEELRNKNRESYEVSLTQKTDPSVRPMHERVPKKEVKVNKYGDTWDE
B8: Copper transport protein ATOX1 (protein, UniProt O00244 1-68, looked up)
Copper transport protein ATOX1: MPKHEFSVDMTCGGCAEAVSRVLNKLGGVKYDIDLPNKKVCIESEHSMDTLLATLKKTGKTVSYLGLE
B9: Galectin-9 (protein, UniProt O00182 1-355, looked up)
Galectin-9: MAFSGSQAPYLSPAVPFSGTIQGGLQDGLQITVNGTVLSSSGTRFAVNFQTGFSGNDIAFHFNPRFEDGGYVVCNTRQNGSWGPEERKTHMPFQKGMPFDLCFLVQSSDFKVMVNGILFVQYFHRVPFHRVDTISVNGSVQLSYISFQNPRTVPVQPAFSTVPFSQPVCFPPRPRGRRQKPPGVWPANPAPITQTVIHTVQSAPGQMFSTPAIPPMMYPHPAYPMPFITTILGGLYPSKSILLSGTVLPSAQRFHINLCSGNHIAFHLNPRFDENAVVRNTQIDNSWGSEERSLPRKMPFVRGQSFSVWILCEAHCLKVAVDGQHLFEYYHRLRNLPTINRLEVGGDIQLTHVQT
B10: Hematopoietic lineage cell-specific protein (protein, UniProt P14317 1-486, looked up)
Hematopoietic lineage …: MWKSVVGHDVSVSVETQGDDWDTDPDFVNDISEKEQRWGAKTIEGSGRTEHINIHQLRNKVSEEHDVLRKKEMESGPKASHGYGGRFGVERDRMDKSAVGHEYVAEVEKHSSQTDAAKGFGGKYGVERDRADKSAVGFDYKGEVEKHTSQKDYSRGFGGRYGVEKDKWDKAALGYDYKGETEKHESQRDYAKGFGGQYGIQKDRVDKSAVGFNEMEAPTTAYKKTTPIEAASSGTRGLKAKFESMAEEKRKREEEEKAQQVARRQQERKAVTKRSPEAPQPVIAMEEPAVPAPLPKKISSEAWPPVGTPPSSESEPVRTSREHPVPLLPIRQTLPEDNEEPPALPPRTLEGLQVEEEPVYEAEPEPEPEPEPEPENDYEDVEEMDRHEQEDEPEGDYEEVLEPEDSSFSSALAGSSGCPAGAGAGAVALGISAVAVYDYQGEGSDELSFDPDDVITDIEMVDEGWWRGRCHGHFGLFPANYVKLLE
B11: Serpin B10 (protein, UniProt P48595 1-397, looked up)
Serpin B10: MDSLATSINQFALELSKKLAESAQGKNIFFSSWSISTSLTIVYLGAKGTTAAQMAQVLQFNRDQGVKCDPESEKKRKMEFNLSNSEEIHSDFQTLISEILKPNDDYLLKTANAIYGEKTYAFHNKYLEDMKTYFGAEPQPVNFVEASDQIRKDINSWVERQTEGKIQNLLPDDSVDSTTRMILVNALYFKGIWEHQFLVQNTTEKPFRINETTSKPVQMMFMKKKLHIFHIEKPKAVGLQLYYKSRDLSLLILLPEDINGLEQLEKAITYEKLNEWTSADMMELYEVQLHLPKFKLEDSYDLKSTLSSMGMSDAFSQSKADFSGMSSARNLFLSNVFHKAFVEINEQGTEAAAGSGSEIDIRIRVPSIEFNANHPFLFFIRHNKTNTILFYGRLCSP
B12: Annexin A5 (protein, UniProt P08758 2-320, looked up)
Annexin A5: AQVLRGTVTDFPGFDERADAETLRKAMKGLGTDEESILTLLTSRSNAQRQEISAAFKTLFGRDLLDDLKSELTGKFEKLIVALMKPSRLYDAYELKHALKGAGTNEKVLTEIIASRTPEELRAIKQVYEEEYGSSLEDDVVGDTSGYYQRMLVVLLQANRDPDAGIDEAQVEQDAQALFQAGELKWGTDEEKFITIFGTRSVSHLRKVFDKYMTISGFQIEETIDRETSGNLEQLLLAVVKSIRSIPAYLAETLYYAMKGAGTDDHTLIRVMVSRSEIDLFNIRKEFRKNFATSLYSMIKGDTSGDYKKALLLLCGEDD

tested on: human HL60 cells; assay: SWATH-MS proteomics, differential protein representation, akirin2 KO vs WT HL60 cells; assay type: cell-based; conditions: SWATH-MS, akirin2 KO vs WT HL60 cells; over-represented in KO
How it was run: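 First, proteins from wild-type and knockout cells are digested with trypsin by FASP. Next, pooled IDA runs generate a reference ion library. Then six samples of 5 µg each are acquired by data-independent SWATH, and protein areas are normalized to the summed area of all detected proteins.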

First: B1
Second: B2
The “Fold Change” value of the first is lower: 1.783 for the first, 6.406 for the second.

Going from B3 to B4, the “Fold Change” value rises from 1.774 to 2.042.

First: B5
Second: B6
The “Fold Change” value of the first is higher: 2.047 for the first, 1.9528 for the second.

Going from B7 to B8, the “Fold Change” value falls from 1.964 to 1.845.

First: B9
Second: B10
The “Fold Change” value of the first is higher: 1.857 for the first, 1.764 for the second.

Compared with B11, B12 is lower in “Fold Change” value: 1.749 for the first, 1.702 for the second.

First: B1
Second: B2
The “Log (Fold Change)” value of the first is lower: 0.2511 for the first, 0.8066 for the second.

B3 and B4 are within 0.2 log units of each other in “Log (Fold Change)” value: 0.2489 for the first, 0.31 for the second.

B5 and B6 are within 0.2 log units of each other in “Log (Fold Change)” value: 0.3112 for the first, 0.2907 for the second.

B7 and B8 are within 0.2 log units of each other in “Log (Fold Change)” value: 0.2932 for the first, 0.266 for the second.

B9 and B10 are within 0.2 log units of each other in “Log (Fold Change)” value: 0.2687 for the first, 0.2466 for the second.

B11 and B12 are within 0.2 log units of each other in “Log (Fold Change)” value: 0.2428 for the first, 0.231 for the second.
